Assay results taken from patent publication US20250019435A1 (ALBERT EINSTEIN COLLEGE OF MEDICINE, published 2025).

B1: CD112-Ig fusion protein (Fc fusion, UniProt Q92692 32-360, looked up)
chain: QDVRVQVLPEVRGQLGGTVELPCHLLPPVPGLYISLVTWQRPDAPANHQNVAAFHPKMGPSFPSPKPGSERLSFVSAKQSTGQDTEAELQDATLALHGLTVEDEGNYTCEFATFPKGSVRGMTWLRVIAKPKNQAEAQKVTFSQDPTTVALCISKEGRPPARISWLSSLDWEAKETQVSGTLAGTVTVTSRFTLVPSGRADGVTVTCKVEHESFEEPALIPVTLSVRYPPEVSISGYDDNWYLGRTDATLSCDVRSNPEPTGYDWSTTSGTFPTSAVAQGSQLVIHAVDSLFNTTFVCTVTNAVGMGRAEQVIFVRETPNTAGAGATGG
notes: Bought (R&D Systems); also called nectin-2; not shown: Ig part, detected with anti-human IgG Fc
B2: PVR-Ig fusion protein (Fc fusion, UniProt P15151 27-343, looked up)
chain: GDVVVQAPTQVPGFLGDSVTLPCYLQVPNMEVTHVSQLTWARHGESGSMAVFHQTQGPSYSESKRLEFVAARLGAELRNASLRMFGLRVEDEGNYTCLFVTFPQGSRSVDIWLRVLAKPQNTAEVQKVQLTGEPVPMARCVSTGGRPPAQITWHSDLGGMPNTSQVPGFLSGTVTVTSLWILVPSSQVDGKNVTCKVEHESFEKPQLLTVNLTVYYPPEVSISGYDNNWYLGQNEATLTCDARSNPEPTGYNWSTTMGPLPPFAVAQGAQLLIRPVDKPINTTLICNVTNALGARQAELTVQVKEGPPSEHSGISRN
notes: Bought (R&D Systems); also called PVR-Ig protein; not shown: Ig part, detected with anti-human IgG Fc
B3: KIR2DL5B*003 allele expressed on 3T3 cells (receptor)
chain: HEGGQDKPLLSAWPSAVVPRGGHVTLLCRSRLGFTIFSLYKEDGVPVPELYNKIFWKSILMGPVTPAHAGTYRCRGSHPRSPIEWSAPSNPLVIMVTGLFGKPSLSAQPGPTVRTGENVTLSCSSRSSFDMYHLSREGRAHEPRLPAVPSVNGTFQADFPLGPATHGGTYTCFGSLHDSPYEWSDPSDPLLVSVTGNSSSSSSSPTEPSSKTGIRRHLHILIGTSVAIILFIILFFFLLHCCCSNKKNAAVMDQEPAGDRTVNREDSDDQDPQEVTYAQLDHCVFTQTKITSPSQRPKTPPTDTTMYMELPNAKPRSLSPAHKHHSQALRGSSRETTALSQNRVASSHVPAAGI

Legend:
[1] = target: T1, KIR2DL5 wild type (KIR2DL5A*001) expressed on cells (human, UniProt Q8N109 22-375); test: flow cytometry, fusion protein on KIR2DL5/3T3, anti-human IgG Fc detection
T1 construct: UniProtKB Q8N109 and NP_065396.1 are printed for this entry; In the SHP-1/SHP-2 co-immunoprecipitation the cells were treated with pervanadate and the receptor was tyrosine-phosphorylated; also called KIR2DL5/3T3; WT KIR2DL5
Method: (§1) PVR-Ig protein was preincubated with indicated His-tagged protein and then stained KIR2DL5/3T3 cells. […] (D) Flow cytometric analysis of PVR-Ig (open) or control hIg (shaded) binding on 3T3 cells expressing WT, DO-deleted, or D2-deleted KIR2DL5. Parental 3T3 cells were used as a negative control. (E) Flow cytometric analysis of PVR-Ig or control hIg (shaded) binding on 3T3 cells expressing different KIR2DL5 alleles. In A-E, data are representative of 2 independent experiments.
(§2) Fusion protein cell binding assays. PVR-Ig, CD112-Ig, or hIgG (R&D Systems) was incubated with corresponding 3T3 cells on ice for 45 minutes, followed by incubation with APC- or PE-conjugated anti-human IgG Fc antibody (1:100; clone HP6017, BioLegend) on ice for 30 minutes. Cells were then acquired on an LSR II flow cytometer (BD Biosciences). In the anti-KIR2DL5 mAb blocking assay, KIR2DL5/3T3 cells were preincubated with a serial concentration of anti-KIR2DL5 mAb F8B30 or mIgG1 on ice for 30 minutes. After washing, the cells were then incubated with 20 μg/mL PVR-Ig or hIgG on ice for 45 minutes, followed by incubation with APC anti-human IgG Fc antibody on ice for 30 minutes. […]

[2] = target: T2, KIR2DL5A*005 allele expressed on 3T3 cells (human); test: flow cytometry, PVR-Ig on 3T3 cells expressing KIR2DL5 alleles
T2 construct: also called 2D5A*005
Method: as §1, with “FIG. 10A-E: Allelic polymorphism affected PVR binding of KIR2DL5. (A) Flow cytometric analysis of PVR-Ig or CD112-Ig (open) or control hIg (shaded) binding to KIR2DL5/3T3. (B) Flow cytometric analysis of PVR-Ig binding to KIR2DL5/3T3 in the presence of increasing concentrations of F8B30. (C) KIR2DL5 bound to different sites of PVR from other receptors. PVR-Ig protein” for “PVR-Ig protein”
as §2, with “minutes.” for “minutes. After washing, the cells were then incubated with 20 μg/mL PVR-Ig or hIgG on ice for 45 minutes, followed by incubation with APC anti-human IgG Fc antibody on ice for 30 minutes.”

[3] = target: T3, KIR2DL4 expressed on 3T3 cells (human, UniProt Q99706 22-377); test: flow cytometry, PVR-Ig titrated on KIR2DL4/3T3
T3 construct: whole, on cells; also called KIR2DL4/3T3
T3 sequence (Q99706 22-377): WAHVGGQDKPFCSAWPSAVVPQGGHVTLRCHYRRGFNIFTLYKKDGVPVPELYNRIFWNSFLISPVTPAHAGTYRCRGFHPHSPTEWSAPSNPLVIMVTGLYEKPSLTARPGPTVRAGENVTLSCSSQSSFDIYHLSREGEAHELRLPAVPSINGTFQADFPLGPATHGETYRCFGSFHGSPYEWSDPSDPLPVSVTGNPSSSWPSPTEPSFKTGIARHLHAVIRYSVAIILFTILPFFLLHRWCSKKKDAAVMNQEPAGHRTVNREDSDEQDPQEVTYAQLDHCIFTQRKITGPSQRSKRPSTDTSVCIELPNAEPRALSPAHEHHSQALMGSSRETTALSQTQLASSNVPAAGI
Method: Specifically, a cell-based binding assay was performed by incubating PVR-Ig fusion protein with KIR2DL5- or KIR2DL4-expressing 3T3 cells. Conversely, KIR2DL5 was selectively bound by PVR, but not by CD112 (also known as nectin-2), another ligand for TIGIT and DNAM-1 in the nectin/nectin-like family (FIG. 10A). Furthermore, anti-KIR2DL5 mAb F8B30 blocked KIR2DL5-PVR interaction (EC₅₀=0.095 μM) (FIG. 10B). The specificity of KIR2DL5 binding to PVR was also evidenced by an intercellular interaction assay, in which 3T3 cells expressing PVR interacted with 3T3 cells expressing KIR2DL5, but not with cells expressing KIR3DL3 (FIG. 18B), a newly identified inhibitory receptor of HHLA2 (Zang, 2022; Wei 2021; Bhatt 2021).
as §2

PVR-Ig fusion protein = target: B2; test: flow cytometry, PVR-Ig on 3T3 cells expressing KIR2DL5 alleles
Method: as §1, with “FIG. 10A-E: Allelic polymorphism affected PVR binding of KIR2DL5. (A) Flow cytometric analysis of PVR-Ig or CD112-Ig (open) or control hIg (shaded) binding to KIR2DL5/3T3. (B) Flow cytometric analysis of PVR-Ig binding to KIR2DL5/3T3 in the presence of increasing concentrations of F8B30. (C) KIR2DL5 bound to different sites of PVR from other receptors. PVR-Ig protein” for “PVR-Ig protein”
as §2, with “minutes.” for “minutes. After washing, the cells were then incubated with 20 μg/mL PVR-Ig or hIgG on ice for 45 minutes, followed by incubation with APC anti-human IgG Fc antibody on ice for 30 minutes.”

B1
binding result [1]: no binding

B2
binding result [2]: no binding
binding result [3]: no binding (tested: 1.28 µM)

B3
binding result (PVR-Ig fusion protein): no binding
